{"source": "paper PMC6677920", "about": "(2019)", "binders": {"B1": {"name": "hybrid Fab B4* (B4 HC/B13 LC) (Fab, V domains shown)", "VH": "QVQLQESGPSLVKPSQTLSLTCTVSGFSLSSYSVSWVRQAPGKTLEWLGDASNGGIIYYNPALKSRLGITRDNSKSQVSLSLNTITPEDTATYYCAKCSVGDSGSYACTGRKGEYVDAWGQGLLVTVSS", "VL": "QAVLTQPPSVSGSLGQRVSITCSGSSDNIGIFAVGWYQQVPGSGLRTIIYGNTKRPSGVPDRFSGSKSGNTATLTINSLQAEDEADYFCVCGESKSATPVFGGGTTLTVL"}}, "biological_target": "recombinant bovine respiratory syncytial virus fusion (F) protein, purified (bovine respiratory syncytial virus, UniProt P22167 26-513)", "assay": "SPR"}
{"binder": "B1", "values": [{"measurement": "Kd", "result": "~12", "unit": "µM"}]}
